System: Escherichia coli TOP10
Assay: shrunken log2 fold change of peptide-encoding DNA abundance (4.5 h post-induction vs induction); higher = less antimicrobial activity (less host growth inhibition)
Details: time post-induction: 4.5 h; library: site-saturation at positions 5, 18, 19, 20
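Note: peptides expressed intracellularly from a pBAD plasmid library in pooled LB shake-flask culture, induced with 0.3% L-arabinose, DNA abundance read by NGS, three biological replicates, DESeq2 with apeglm shrinkage.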

Sequence: RRIRIRPPRLPRPRPRPEMWPRP
- shrunken log2 fold change: 0.0226

Sequence: RRIRDRPPRLPRPRPRPPHPPRP
- shrunken log2 fold change: 0.235

Sequence: RRIRWRPPRLPRPRPRPALVPRP
- shrunken log2 fold change: 0.98

Sequence: RRIRSRPPRLPRPRPRPPRCPRP
- shrunken log2 fold change: 0.218

Sequence: RRIRWRPPRLPRPRPRPCEQPRP
- shrunken log2 fold change: 0.263

Sequence: RRIRQRPPRLPRPRPRPSDAPRP
- shrunken log2 fold change: 0.147

Sequence: RRIRDRPPRLPRPRPRPLEVPRP
- shrunken log2 fold change: 0.121

Sequence: RRIRMRPPRLPRPRPRPERIPRP
- shrunken log2 fold change: 0.0158

Sequence: RRIRLRPPRLPRPRPRPVKNPRP
- shrunken log2 fold change: -0.176

Sequence: RRIRTRPPRLPRPRPRPISAPRP
- shrunken log2 fold change: 0.259

Sequence: RRIRSRPPRLPRPRPRPEIQPRP
- shrunken log2 fold change: 0.00278

Sequence: RRIRYRPPRLPRPRPRPMCCPRP
- shrunken log2 fold change: -3.16

Sequence: RRIRYRPPRLPRPRPRPQCIPRP
- shrunken log2 fold change: -0.0693

Sequence: RRIRQRPPRLPRPRPRPWNQPRP
- shrunken log2 fold change: -0.0236

Sequence: RRIRIRPPRLPRPRPRPITKPRP
- shrunken log2 fold change: -0.123

Sequence: RRIRCRPPRLPRPRPRPFRPPRP
- shrunken log2 fold change: -0.515

Sequence: RRIRVRPPRLPRPRPRPKQHPRP
- shrunken log2 fold change: -0.301

Sequence: RRIRNRPPRLPRPRPRPYLMPRP
- shrunken log2 fold change: -0.287

Sequence: RRIRNRPPRLPRPRPRPDGTPRP
- shrunken log2 fold change: -0.128

Sequence: RRIRARPPRLPRPRPRPPQTPRP
- shrunken log2 fold change: 0.9

Sequence: RRIRQRPPRLPRPRPRPRMAPRP
- shrunken log2 fold change: 0.0146

Sequence: RRIRPRPPRLPRPRPRPGNVPRP
- shrunken log2 fold change: -0.344

Sequence: RRIRERPPRLPRPRPRPSGSPRP
- shrunken log2 fold change: 0.0459

Sequence: RRIRTRPPRLPRPRPRPTKQPRP
- shrunken log2 fold change: -0.0507

Sequence: RRIRTRPPRLPRPRPRPYASPRP
- shrunken log2 fold change: -0.255

Sequence: RRIRCRPPRLPRPRPRPFCRPRP
- shrunken log2 fold change: -0.0846

Sequence: RRIRCRPPRLPRPRPRPNLCPRP
- shrunken log2 fold change: -0.427

Sequence: RRIRFRPPRLPRPRPRPLFGPRP
- shrunken log2 fold change: 0.0395

Sequence: RRIRGRPPRLPRPRPRPLHWPRP
- shrunken log2 fold change: 0.627

Sequence: RRIRARPPRLPRPRPRPAHLPRP
- shrunken log2 fold change: 0.271

Sequence: RRIRFRPPRLPRPRPRPRKQPRP
- shrunken log2 fold change: 0.415

Sequence: RRIRTRPPRLPRPRPRPNWVPRP
- shrunken log2 fold change: -0.159

Sequence: RRIRGRPPRLPRPRPRPSFQPRP
- shrunken log2 fold change: 0.198

Sequence: RRIRRRPPRLPRPRPRPNCPPRP
- shrunken log2 fold change: 0.039

Sequence: RRIRYRPPRLPRPRPRPGILPRP
- shrunken log2 fold change: -0.0404

Sequence: RRIRNRPPRLPRPRPRPHSLPRP
- shrunken log2 fold change: -0.117

Sequence: RRIRNRPPRLPRPRPRPDPRPRP
- shrunken log2 fold change: 0.562

Sequence: RRIRIRPPRLPRPRPRPRYLPRP
- shrunken log2 fold change: 0.0743

Sequence: RRIRLRPPRLPRPRPRPIYYPRP
- shrunken log2 fold change: -0.561

Sequence: RRIRERPPRLPRPRPRPWFHPRP
- shrunken log2 fold change: -0.421

Sequence: RRIRCRPPRLPRPRPRPKQMPRP
- shrunken log2 fold change: 0.364

Sequence: RRIRFRPPRLPRPRPRPMVQPRP
- shrunken log2 fold change: -0.106

Sequence: RRIRMRPPRLPRPRPRPHQQPRP
- shrunken log2 fold change: 0.107

Sequence: RRIRERPPRLPRPRPRPQLNPRP
- shrunken log2 fold change: -0.423

Sequence: RRIRMRPPRLPRPRPRPHLVPRP
- shrunken log2 fold change: -0.0163

Sequence: RRIRTRPPRLPRPRPRPFYDPRP
- shrunken log2 fold change: -0.382

Sequence: RRIRRRPPRLPRPRPRPPKGPRP
- shrunken log2 fold change: 0.706

Sequence: RRIRKRPPRLPRPRPRPHKRPRP
- shrunken log2 fold change: 0.434

Sequence: RRIRERPPRLPRPRPRPDMHPRP
- shrunken log2 fold change: -0.0138

Sequence: RRIRDRPPRLPRPRPRPMKWPRP
- shrunken log2 fold change: 0.139

Sequence: RRIRHRPPRLPRPRPRPNGGPRP
- shrunken log2 fold change: -0.147

Sequence: RRIRARPPRLPRPRPRPKRTPRP
- shrunken log2 fold change: 0.553

Sequence: RRIRQRPPRLPRPRPRPHYNPRP
- shrunken log2 fold change: -1.22

Sequence: RRIRLRPPRLPRPRPRPASKPRP
- shrunken log2 fold change: -0.116

Sequence: RRIRMRPPRLPRPRPRPNSMPRP
- shrunken log2 fold change: -0.22

Sequence: RRIRPRPPRLPRPRPRPWFWPRP
- shrunken log2 fold change: 0.281

Sequence: RRIRIRPPRLPRPRPRPTRYPRP
- shrunken log2 fold change: -0.328

Sequence: RRIRRRPPRLPRPRPRPGDQPRP
- shrunken log2 fold change: 0.272

Sequence: RRIRGRPPRLPRPRPRPNHPPRP
- shrunken log2 fold change: 0.0349

Sequence: RRIRSRPPRLPRPRPRPRQDPRP
- shrunken log2 fold change: 0.127

— the supplement of paper PMC9112550, “Optimization of the antimicrobial peptide Bac7 by deep mutational scanning” (BMC Biology, 2022)
